Measurements taken from paper PMC8322138, “BRCA2 binding through a cryptic repeated motif to HSF2BP oligomers does not impact meiotic recombination” (Nature Communications, 2021).

B1: L85R: GFP-HSF2BP point mutant (protein, UniProt O75031 1-334, looked up, variant L85R)
Heat shock factor 2-binding …: MGEAGAAEEACRHMGTKEEFVKVRKKDLERLTTEVMQIRDFLPRILNGEVLESFQKLKIVEKNLERKEQELEQLKMDCEHFKARRETVQADNIREKKEKLALRQQLNEAKQQLLQQAEYCTEMGAAACTLLWGVSSSEEVVKAILGGDKALKFFSITGQTMESFVKSLDGDVQELDSDESQFVFALAGIVTNVAAIACGREFLVNSSRVLLDTILQLLGDLKPGQCTKLKVLMLMSLYNVSINLKGLKYISESPGFIPLLWWLLSDPDAEVCLHVLRLVQSVVLEPEVFSKSASEFRSSLPLQRILAMSKSRNPRLQTAAQELLEDLRTLEHNV
modifications: GFP fusion
notes: GFP-HSF2BP point mutant
B2: R200T: HSF2BP mutant R200T (protein, UniProt O75031 1-334, looked up, variant R200T)
Heat shock factor 2-binding …: MGEAGAAEEACRHMGTKEEFVKVRKKDLERLTTEVMQIRDFLPRILNGEVLESFQKLKIVEKNLERKEQELEQLKMDCEHFKARLETVQADNIREKKEKLALRQQLNEAKQQLLQQAEYCTEMGAAACTLLWGVSSSEEVVKAILGGDKALKFFSITGQTMESFVKSLDGDVQELDSDESQFVFALAGIVTNVAAIACGTEFLVNSSRVLLDTILQLLGDLKPGQCTKLKVLMLMSLYNVSINLKGLKYISESPGFIPLLWWLLSDPDAEVCLHVLRLVQSVVLEPEVFSKSASEFRSSLPLQRILAMSKSRNPRLQTAAQELLEDLRTLEHNV

How the values were obtained:
[1] = Stability / expression of recombinant GFP-HSF2BP variants; set-up: species or system human; conditions: peer review file; immunoblot, FACS
[2] = test system: mitomycin C-induced repair foci; conditions: cited from earlier work
Description: Consistent with our in vitro study, we observed in mouse ES cells that deletion of exon 12, coding for motif 1, causes a severe decrease in the BRCA2-HSF2BP interaction, and deletion of exons 12 to 14, coding for motifs 1 and 2, completely abolishes this interaction (Fig. 5d, e). […] We further previously ...

Molecule | stability of recombinant GFP-HSF2BP variant [1] | localization of GFP-tagged HSF2BP to mitomycin C-induced repair foci [2]
B1 | unstable | 
B2 |  | abolishes localization
